Results taken from US20250281595A1.

Target: purified B/Washington/02/2019 HA full ectodomain (wild type) fused with TEV cleavage motif, trimeris (influenza B virus B/Washington/02/2019 (B/Victoria)) (UniProt P22092)
Test: BLI (Octet Red), […], Fab CR9114 at 20 ug/ml; […]

fAb CR9114 gave an OCTET CR9114 30° C. response of 0.48 nm and an OCTET Fab CR9114 response of 0.38 nm.
